Assay results reported in US20060057652A1 (UNIVERSITY OF MASSACHUSETTS, published 2006).

What was measured:
[1] = target: T1, β-actin (UniProt P60709 2-375); assay: anti-FLAG affinity purification from Ad-Apwt-infected H1299 cells, SDS-PAGE, MALDI-TOF
T1 construct: also called beta-actin

[2] = target: T2, anaphase promoting complex subunit 1 (APC1) (Homo sapiens, UniProt Q9H1A4 1-1944); assay: anti-FLAG immunoprecipitation from H1299 cells, APC1 immunoblot
T2 construct: Endogenous protein in lysates of H1299 (or PFF) cells, detected with a polyclonal anti-APC1 antibody or by MALDI-TOF; also called Cyclosome subunit 1; Protein TSG24
T2 sequence (Q9H1A4 whole entry, one chain of several): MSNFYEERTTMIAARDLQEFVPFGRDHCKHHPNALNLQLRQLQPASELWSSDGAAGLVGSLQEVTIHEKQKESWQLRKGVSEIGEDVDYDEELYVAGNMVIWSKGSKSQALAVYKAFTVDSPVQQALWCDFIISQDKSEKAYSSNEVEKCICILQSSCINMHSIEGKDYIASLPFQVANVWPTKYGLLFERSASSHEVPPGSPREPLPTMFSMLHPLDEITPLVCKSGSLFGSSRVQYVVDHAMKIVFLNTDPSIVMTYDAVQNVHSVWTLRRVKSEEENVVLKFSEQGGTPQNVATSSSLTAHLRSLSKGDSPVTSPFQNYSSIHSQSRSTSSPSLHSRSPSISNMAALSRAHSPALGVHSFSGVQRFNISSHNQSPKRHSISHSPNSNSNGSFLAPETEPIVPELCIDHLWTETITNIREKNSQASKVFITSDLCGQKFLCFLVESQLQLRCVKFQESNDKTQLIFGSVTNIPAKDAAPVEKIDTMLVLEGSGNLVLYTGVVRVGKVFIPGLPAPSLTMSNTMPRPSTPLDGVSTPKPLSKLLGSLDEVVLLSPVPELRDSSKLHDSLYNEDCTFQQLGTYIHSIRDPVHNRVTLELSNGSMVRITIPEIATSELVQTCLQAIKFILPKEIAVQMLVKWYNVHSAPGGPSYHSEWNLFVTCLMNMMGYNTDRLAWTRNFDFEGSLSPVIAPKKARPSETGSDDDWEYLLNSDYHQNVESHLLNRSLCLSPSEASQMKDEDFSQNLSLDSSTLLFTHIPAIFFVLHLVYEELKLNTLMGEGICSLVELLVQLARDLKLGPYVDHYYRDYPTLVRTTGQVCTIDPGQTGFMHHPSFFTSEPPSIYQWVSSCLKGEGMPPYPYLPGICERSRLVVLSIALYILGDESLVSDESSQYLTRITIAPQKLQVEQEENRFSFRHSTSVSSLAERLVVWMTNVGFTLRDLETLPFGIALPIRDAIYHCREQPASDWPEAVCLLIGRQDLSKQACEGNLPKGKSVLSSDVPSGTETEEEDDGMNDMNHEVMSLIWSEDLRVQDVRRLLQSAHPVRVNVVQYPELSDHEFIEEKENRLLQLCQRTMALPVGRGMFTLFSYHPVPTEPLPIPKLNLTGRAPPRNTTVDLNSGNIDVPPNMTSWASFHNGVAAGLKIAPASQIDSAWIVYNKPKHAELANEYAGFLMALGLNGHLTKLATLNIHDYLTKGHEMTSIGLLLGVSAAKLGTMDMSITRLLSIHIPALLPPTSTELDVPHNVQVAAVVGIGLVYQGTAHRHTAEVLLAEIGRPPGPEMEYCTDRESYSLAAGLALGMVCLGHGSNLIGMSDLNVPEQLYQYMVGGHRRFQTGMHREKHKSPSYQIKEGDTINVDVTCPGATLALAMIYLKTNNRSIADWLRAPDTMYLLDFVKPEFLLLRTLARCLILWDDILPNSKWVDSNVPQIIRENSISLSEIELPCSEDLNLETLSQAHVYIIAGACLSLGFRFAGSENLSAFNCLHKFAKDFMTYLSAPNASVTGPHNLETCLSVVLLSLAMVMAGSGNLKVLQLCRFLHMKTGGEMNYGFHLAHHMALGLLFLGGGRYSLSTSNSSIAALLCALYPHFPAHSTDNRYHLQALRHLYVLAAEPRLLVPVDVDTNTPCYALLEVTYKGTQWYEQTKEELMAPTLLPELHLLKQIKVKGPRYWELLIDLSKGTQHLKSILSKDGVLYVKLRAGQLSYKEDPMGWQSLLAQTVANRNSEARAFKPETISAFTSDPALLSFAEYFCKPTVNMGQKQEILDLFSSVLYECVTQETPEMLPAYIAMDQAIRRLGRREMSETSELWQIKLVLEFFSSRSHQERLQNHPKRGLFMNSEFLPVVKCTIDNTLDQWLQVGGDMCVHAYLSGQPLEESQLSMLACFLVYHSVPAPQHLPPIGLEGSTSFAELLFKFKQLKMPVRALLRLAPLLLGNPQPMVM

Binder | binding result [1] | binding result [2]
FLAG-tagged wild type Apoptin expressed from adenovirus Ad-Apwt (other, Expressed in infected H1299 or PFF cells and pulled down from lysates on anti-FLAG beads; also called FLAG-Apoptin; FLAG-tagged Apoptin) MNALQEDTPPGPSTVFRPPTSSRPLETPHCREIRIGIAGITITLSLCGCANARAPTLRSATADNSESTGFKNVPDLRTDQPKPPSKKRSCDPSEYRVSELKESLITTTPSRPRTAKRRIRL | binds | –
triple FLAG-tagged Ap-pmNLS2 (other, not shown: triple FLAG tag) MNALQEDTPPGPSTVFRPPTSSRPLETPHCREIRIGIAGITITLSLCGCANARAPTLRSATADNSESTGFKNVPDLRTDQPKPPSKKRSCDPSEYRVSELKESLITTTPSRPRTAAAAIRL | – | no binding
triple FLAG-tagged Ap-SV40NLS (other, The make-up (Apoptin 1-88 plus SV40 LT NLS) is described for the GFP construct; not shown: triple FLAG tag) MNALQEDTPPGPSTVFRPPTSSRPLETPHCREIRIGIAGITITLSLCGCANARAPTLRSATADNSESTGFKNVPDLRTDQPKPPSKKRPKKKRKV | – | no binding
